In US6200577A, “Anti-herpesviral agents and assays therefor” (priority 1996, dated 2001):

Tests used:
VP16 = biological target: T1, VP16 (Human herpesvirus 1, UniProt P06492); test: ELISA of direct binding of VP16 to plate-coated peptides; design: species or system HSV-1; conditions: wells coated with peptide up to 500 μg/ml; VP16 1.6 μg/ml; FIG. 10
T1 construct: Plasmid pETVP16 was used to express full-length VP16 under the control of the T7 RNA polymerase promoter; made in house; host or cells: E. coli BL21(DE3)
T1 sequence (P06492 whole entry): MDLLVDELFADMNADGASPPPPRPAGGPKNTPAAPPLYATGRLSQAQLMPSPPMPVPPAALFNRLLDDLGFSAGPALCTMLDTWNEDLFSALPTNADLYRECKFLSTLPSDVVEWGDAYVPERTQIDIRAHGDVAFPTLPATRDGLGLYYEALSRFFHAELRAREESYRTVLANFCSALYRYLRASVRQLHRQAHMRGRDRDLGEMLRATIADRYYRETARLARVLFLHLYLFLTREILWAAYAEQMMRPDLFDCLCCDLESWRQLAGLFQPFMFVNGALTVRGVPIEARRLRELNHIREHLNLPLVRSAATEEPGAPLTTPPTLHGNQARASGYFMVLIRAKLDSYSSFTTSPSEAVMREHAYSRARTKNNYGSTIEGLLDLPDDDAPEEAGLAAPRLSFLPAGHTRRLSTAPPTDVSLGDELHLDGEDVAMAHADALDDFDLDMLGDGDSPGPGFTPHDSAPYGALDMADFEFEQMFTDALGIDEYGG
Experimental: FIG. 10 Binding of VP16 to peptides. Microtitre plates were coated with 5-fold dilutions of peptides ranging from 500 μg/ml to 1 μg/ml and blocked with PBS/10% NCS. VP16 was then added to a final concentration of 1.6 μg/ml and detected with LP1. The legend for the peptides added is shown to the right of the graph.
Dilutions of proteins in PBS were coated overnight onto flat bottomed micro-titre plates (Dynatech) at 37° C. and then blocked with either 2% BSA or 10% new-born calf serum (NCS) in PBS for 1 hour at 37° C. Specific binding of a second protein to the plate-bound protein was performed for 1.5-2 hours at ambient temperature. a Excess secondary protein was removed by washing four times with PBS, 0.3% Tween 20. Bound protein was detected by incubation for 1.5-2 hours with LP1 antibody in PBS, 1% gelatin or PBS, 2% NCS. The bound antibody was detected by incubation for 1 hour at ambient temperature with anti-mouse antibody conjugated to HRP (1:500) and visualised with Smg/ml enzyme substrate 2,2'-azino-bis(3-ethylbenzthiazoline-6-sulphonic acid) (ABTS; Sigma) in citrate-phosphate buffer containing 6 μl hydrogen peroxide in a total volume of 20 ml. Optical densities were measured on a Titertek Multiscan PLUS instrument.
To examine whether VP16 could bind directly to the peptides, wells were coated with each peptide (A-J) at a range of concentrations from […] to 500 μg/ml and the plate was then blocked with […]. […] Nonetheless, the data for peptides D and E implicate direct binding of these peptides to VP16 as the mechanism for inhibiting its interaction with VP22. Peptide H also was active in experiments which prevented gB binding to VP22trunc [Section 4 (iii)] and thus also forms an aspect of the invention.

[1] = Solubility of synthetic peptides in buffer; assay type: physicochemical; conditions: peptides dissolved in 20 mM Tris-HCl, pH 8.0, 250 mM NaCl; unpurified preparations
Experimental: Synthesis and Purification of Oligopeptides. Peptides were synthesised by continuous flow Fmoc chemistry (Atherton and Sheppard, 1989; McLean et al., 1991) and, where stated in the text, were purified by preparative reverse-phase HPLC (Owsianka et al., 1993). The Mr values of peptides were determined by fast atom bombardment mass spectrometry (M-Scan) and corresponded to the predicted values. Peptides were dissolved in 20 mM Tris-HCl, pH 8.0, 250 mM NaCl and centrifuged at 11,500 g for 1 minute prior to use. […] Precipitates were removed by centrifugation before use.

gB/VP22trunc binding = biological target: T2, gB/VP22trunc binding (Human herpesvirus 1, UniProt P10211); test: Far Western analysis of peptide inhibition of GST-gB binding to VP22trunc; design: species or system HSV-1; conditions: peptide 250 μg/ml co-incubated with GST-gB 1.2 μg/ml; FIG. 12B
T2 construct: linked residues 798 to 904 of gB to the glutathione-S-transferase (GST) protein expressed by pGex2TNMCR; made in house; host or cells: GST-gB: E. coli DH5alpha; VP22trunc: E. coli BL21(DE3)
T2 sequence (P10211 798-904): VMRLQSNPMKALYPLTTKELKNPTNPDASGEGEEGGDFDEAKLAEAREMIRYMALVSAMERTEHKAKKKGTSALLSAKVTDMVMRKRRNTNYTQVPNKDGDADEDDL
Experimental: (B) Inhibition of binding of GST-gB (final concentration 1.2 μg/ml)and each of the following peptides at a final concentration of 250 μg/ml: lane 1, no peptide; lane 2, peptide A; lane 3, peptide B; lane 4, peptide C; lane 5, peptide D; lane 6, peptide E; lane 7, peptide F; lane 8, peptide G; lane 9, peptide H; lane 10, peptide I; lane 11, peptide J. Bound GST-gB was detected with anti-GST antibody.
Following electrophoresis, proteins were electrotransferred to either Hybond or ProBlott (Applied Biosystems) membrane and the membrane was incubated in renaturation buffer (50 mM Tris-HCl, pH 8.0, 150 mM NaCl, 10% glycerol, 1 mM DTT) at 4° C. for 5-6 hours.
For membranes probed with GST-gB, blocking was performed overnight in PBSA containing 1% non-fat dried milk and 0.05% Tween 20 at 4° C. Membranes were then washed twice in renaturation buffer (10 min/wash) prior to incubation with fusion protein (final concentration 0.5 μg/ml) in renaturation buffer containing 1% BSA. Incubation was again performed overnight at 4° C. Following washing with renaturation buffer (four times, 10 minutes/wash) and a brief rinse with blocking buffer, the membrane was incubated with anti-GST antibody in PBSA, 1% non-fat dried milk, 0.05% Tween 20 and 1% BSA for 1 hour at ambient temperature. After four washes with PBSA, 0.05% Tween 20 (10 minutes/wash), bound antibody was detected with secondary antibody (goat anti-rabbit IgG, whole molecule; Sigma) conjugated to Horse Radish Peroxidase (HRP) by incubating at room temperature for 45 minutes. Following four further washes with PBSA, 0.05% Tween 20, the secondary antibody was visualised by enhanced chemiluminescence.
Similar to the studies performed with inhibition of binding of VP16 to VP22, peptides A to J, which span residues 18 to 144 of VP22trunc, were used to examine whether gB binding could also be prevented (FIG. 12B).

[2] = biological target: T3, VP16/VP22trunc interaction (Human herpesvirus 1, UniProt P06492); test: Co-purification of VP16 with VP22trunc on Ni-NTA resin in presence of peptides; assay type: binding, HSV-1; conditions: crude peptide at 2 mg/ml (about 1 mM), equal volume mixed with partially purified VP16 extract before VP22trunc
T3 construct: Plasmid pETVP16 was used to express full-length VP16 under the control of the T7 RNA polymerase promoter; made in house; host or cells: E. coli BL21(DE3)
T3 sequence (P06492 whole entry): as the sequence (P06492 whole entry) above
Experimental: FIG. 4 Co-elution of VP16 with VP22trunc from Ni-NTA resin. Partially purified extract containing VP16 was incubated in the absence of (lane 14) or presence of […] of VP22trunc (lanes 3 to 13). In lanes 3 to 12, an equal volume of the individual peptides at 2 mg/ml was added to the extract prior to VP22trunc. Peptides added to each reaction were as follows: lane 3, peptide A; lane 4, peptide B; lane 5, peptide C; lane 6, peptide D; lane 7, peptide E; lane 8, peptide F; lane 9, peptide G; lane 10, peptide H; lane 11, peptide I; lane 12, peptide J; lane 13, no peptide. Lanes 3 to 14 show the polypeptides eluted from Ni-NTA resin. Other samples were as follows: lane 1, partially purified VP16 extract, lane 2, purified VP16; lane 15, purified VP22trunc. Samples were electrophoresed on a 12% polyacrylamide gel and the apparent molecular weights of VP16 (65 KDa) and VP22trunc (16 KDa) are shown.
Co-purification of VP16 with VP22trunc on Ni-NTA Resin. Purified VP22trunc and a partially purified extract containing VP16, both in 20 mM Tris-HCl, pH8.0, 250 mM NaCl, were mixed at 4° C. for 15 to 30 minutes on a rotator. 50 μl of equilibrated Ni-NTA resin was added to each mixture and incubation was continued at 40C for a further 15 to 30 minutes. Resin was pelleted at 800 g for 1 minute and the supernatant (non-bound fraction) was removed. Resin was washed sequentially with 0.5 ml of 20 mM Tris-HCl, pH 8.0, 250 mM NaCl, 5 mM imidazole (twice) and 0.5 ml of 20 mM Tris-HCl, pH 8.0, 250 mM NaCl, 60 mM imidazole (four times). Bound protein was eluted by addition of 50 μl of boiling mix (160 mM Tris-HCl, pH 6.7, 2% SDS, 700 mM β-mercaptoethanol, 10% glycerol, 0.002% bromophenol blue) followed by heating to 100° C. for 5 minutes. For peptide studies, peptides were dissolved in 20 mM Tris-HCl, pH8.0, 250 mM NaCl at a concentration of 2 mg/ml. Incubation of peptides with partially purified VP16 extracts was performed at ambient temperature for 2 hours prior to the addition of VP22trunc. Samples were electrophoresed on denaturing polyacrylamide gels.
Results presented in Section 2(i) had shown that VP16 co-elutes from Ni-NTA resin in the presence of VP22trunc and it was concluded that this indicated interaction between these polypeptides. The ability of synthetic peptides to inhibit this interaction was analysed by mixing them individually with the partially purified VP16 extract prior to addition of VP22trunc. From the intensity of the 65 KDa species in the crude extract (FIG. 4, lane 2), it was estimated that the concentration of VP16 was approximately […]. To ensure that experiments were performed in an excess of peptide, peptides were prepared at a concentration of 2 mg/ml (about 1 mM) and equal volumes of peptide and extract were mixed. This gave a relative molar ratio of VP16 to peptide of 1:300. However, it should be noted that certain peptides were not completely soluble (Table 1) and in those cases, the ratio would be reduced.

## ITTIRVTVCEGKNLLQRANE [Peptide H]
VP16
  Direct binding of VP16 to plate-coated peptide (ELISA): evidence also for VP16 binding
[1]
  Solubility: soluble
gB/VP22trunc binding
  Inhibition of GST-gB binding to VP22trunc (Far Western): completely inhibited binding of gB
[2]
  Co-elution of VP16 with VP22trunc from Ni-NTA resin after incubation with peptide: does not prevent interaction with VP22
